Data from the Human Domainome abundance scans (Beltran et al. 2025).
± gives the uncertainty stated by the source.

B1: Nucleosome-remodeling factor subunit BPTF, residues 2862 to 2918; numbered along this chain, Q12830 (parent)
chain: TKKDTKLYCICKTPYDESKFYIGCDRCQNWYHGRCVGILQSEAELIDEYVCPQCQST

Variants of: B1
Assay: abundance fitness (aPCA) (normalised: wild type 0, dead -1); higher = more abundant; growth selection in yeast, the domain comes from the species named
Settings: Homo sapiens

| Variant | abundance fitness |
| --- | --- |
| K6F | -0.278 ± 0.067 |
| K6T | 0.008 ± 0.061 |
| K6S | -0.035 ± 0.057 |
| K6I | -0.08 ± 0.06 |
| K6R | -0.086 ± 0.071 |
| K6V | -0.161 ± 0.07 |
| K6L | -0.085 ± 0.055 |
| K6Q | -0.032 ± 0.081 |
| K6P | 0.034 ± 0.061 |
| K6G | -0.071 ± 0.081 |
| K6H | -0.057 ± 0.057 |
| K6N | -0.045 ± 0.058 |
| K6M | -0.013 ± 0.078 |
| K6E | -0.042 ± 0.15 |
| C9N | -0.932 ± 0.096 |
| C9H | -0.838 ± 0.077 |
| C9D | -0.827 ± 0.1 |
| C9L | -0.815 ± 0.065 |
| C9K | -0.706 ± 0.17 |
| C9R | -0.879 ± 0.09 |
| C9P | -0.716 ± 0.068 |
| C9F | -0.916 ± 0.071 |
| C9G | -0.801 ± 0.078 |
| C9Q | -0.846 ± 0.099 |

| Variant | abundance fitness |
| --- | --- |
| C9V | -0.986 ± 0.084 |
| C9A | -0.877 ± 0.081 |
| C9I | -1.05 ± 0.094 |
| C9T | -0.851 ± 0.081 |
| C9E | -0.971 ± 0.22 |
| E17I | -0.155 ± 0.1 |
| E17M | -0.131 ± 0.1 |
| E17D | -0.013 ± 0.1 |
| E17F | -0.052 ± 0.11 |
| E17R | -0.304 ± 0.063 |
| E17V | -0.289 ± 0.068 |
| E17H | -0.168 ± 0.14 |
| E17G | 0.055 ± 0.08 |
| E17N | -0.172 ± 0.11 |
| E17K | -0.013 ± 0.099 |
| E17S | -0.065 ± 0.078 |
| E17P | -0.153 ± 0.081 |
| E17T | -0.2 ± 0.083 |
| E17A | -0.042 ± 0.076 |
| E17C | -0.288 ± 0.084 |
| E17Q | -0.074 ± 0.09 |
| E17L | -0.172 ± 0.065 |
| E17W | -0.412 ± 0.081 |
| E17Y | -0.294 ± 0.12 |

| Variant | abundance fitness |
| --- | --- |
| D16Y | -0.757 ± 0.13 |
| D16T | -0.366 ± 0.076 |
| D16M | -0.194 ± 0.11 |
| D16Q | -0.182 ± 0.1 |
| D16H | -0.55 ± 0.093 |
| D16W | -0.778 ± 0.18 |
| D16P | -0.622 ± 0.1 |
| D16A | -0.441 ± 0.067 |
| D16R | -0.515 ± 0.077 |
| D16C | -0.449 ± 0.14 |
| D16G | -0.564 ± 0.1 |
| D16N | -0.181 ± 0.12 |
| D16K | -0.452 ± 0.11 |
| D16V | -0.315 ± 0.064 |
| D16I | -0.624 ± 0.14 |
| D16L | -0.555 ± 0.069 |
| D16S | -0.362 ± 0.072 |
| G23H | 0.029 ± 0.14 |
| G23D | -0.085 ± 0.096 |
| G23Q | -0.079 ± 0.12 |
| G23S | -0.085 ± 0.079 |
| G23P | -0.297 ± 0.1 |
| G23N | -0.133 ± 0.14 |
| G23Y | -0.031 ± 0.13 |

| Variant | abundance fitness |
| --- | --- |
| G23A | -0.099 ± 0.077 |
| G23C | -0.007 ± 0.12 |
| G23W | -0.177 ± 0.11 |
| G23R | -0.126 ± 0.078 |
| G23T | -0.021 ± 0.095 |
| G23I | -0.546 ± 0.2 |
| G23M | -0.016 ± 0.12 |
| G23F | -0.139 ± 0.13 |
| G23V | -0.223 ± 0.079 |
| G23K | -0.13 ± 0.13 |
| Y15A | -0.366 ± 0.081 |
| Y15N | -0.593 ± 0.2 |
| Y15P | -0.313 ± 0.082 |
| Y15I | -0.073 ± 0.1 |
| Y15K | -0.131 ± 0.091 |
| Y15Q | -0.665 ± 0.14 |
| Y15F | -0.02 ± 0.1 |
| Y15D | -0.438 ± 0.11 |
| Y15S | -0.539 ± 0.073 |
| Y15G | -0.492 ± 0.076 |
| Y15W | -0.118 ± 0.094 |
| Y15M | -0.005 ± 0.073 |
| Y15C | -0.505 ± 0.13 |
| Y15T | -0.303 ± 0.075 |

| Variant | abundance fitness |
| --- | --- |
| Y15E | -0.489 ± 0.1 |
| Y15V | -0.275 ± 0.074 |
| Y15H | -0.106 ± 0.12 |
| K12L | -0.121 ± 0.062 |
| K12S | -0.119 ± 0.058 |
| K12E | -0.025 ± 0.15 |
| K12R | -0.07 ± 0.062 |
| K12V | -0.808 ± 0.094 |
| K12P | -0.907 ± 0.12 |
| K12I | -0.869 ± 0.14 |
| K12Y | -0.134 ± 0.1 |
| K12D | -0.2 ± 0.12 |
| K12C | -0.104 ± 0.067 |
| K12Q | 0.006 ± 0.086 |
| K12W | -0.56 ± 0.088 |
| K12T | -0.106 ± 0.074 |
| K12F | -0.253 ± 0.084 |
| K12N | -0.233 ± 0.12 |
| K12M | -0.167 ± 0.095 |
| K12H | -0.061 ± 0.097 |
| I10C | -0.245 ± 0.1 |
| I10P | -0.395 ± 0.096 |
| I10S | -0.387 ± 0.084 |
| I10F | -0.307 ± 0.11 |

| Variant | abundance fitness |
| --- | --- |
| I10E | -0.129 ± 0.089 |
| I10Y | -0.234 ± 0.11 |
| I10G | -0.387 ± 0.073 |
| I10H | -0.084 ± 0.17 |
| I10N | -0.446 ± 0.18 |
| I10W | -0.398 ± 0.096 |
| I10V | -0.218 ± 0.071 |
| I10K | -0.218 ± 0.13 |
| I10M | -0.252 ± 0.11 |
| I10D | -0.278 ± 0.11 |
| I10R | -0.368 ± 0.072 |
| I10Q | -0.472 ± 0.1 |
| I10T | -0.249 ± 0.099 |
| Y21N | -0.134 ± 0.19 |
| Y21T | -0.3 ± 0.13 |
| Y21L | -0.245 ± 0.088 |
| Y21G | -0.395 ± 0.12 |
| Y21K | -0.196 ± 0.18 |
| Y21C | -0.369 ± 0.17 |
| Y21Q | -0.359 ± 0.12 |
| Y21F | -0.161 ± 0.16 |
| Y21E | -0.245 ± 0.14 |
| Y21M | 0.118 ± 0.11 |
| Y21W | -0.08 ± 0.11 |

| Variant | abundance fitness |
| --- | --- |
| Y21P | -0.658 ± 0.14 |
| Y21I | -0.237 ± 0.17 |
| Y21R | -0.151 ± 0.084 |
| Y21V | -0.19 ± 0.091 |
| Y21H | -0.188 ± 0.17 |
| Y21A | 0.006 ± 0.12 |
| L7A | -0.014 ± 0.071 |
| L7S | -0.046 ± 0.057 |
| L7V | -0.076 ± 0.072 |
| L7T | -0.012 ± 0.062 |
| L7R | -0.18 ± 0.062 |
| L7N | 0.037 ± 0.079 |
| L7P | -0.071 ± 0.068 |
| L7F | -0.089 ± 0.073 |
| L7I | -0.179 ± 0.092 |
| L7G | -0.005 ± 0.073 |
| L7K | -0.219 ± 0.084 |
| L7D | 0.023 ± 0.1 |
| L7H | 0.018 ± 0.067 |
| L7W | -0.13 ± 0.076 |
| L7Y | -0.022 ± 0.066 |
| L7C | -0.058 ± 0.07 |
| T13G | -0.567 ± 0.46 |
